Assay [1] concerns the target T1, Singapore/2009 (serotype III EDIII).
T1 construct: also called ED3-DV3/Sing09; DENV-3 Sing
T1 E protein domain III (EDIII): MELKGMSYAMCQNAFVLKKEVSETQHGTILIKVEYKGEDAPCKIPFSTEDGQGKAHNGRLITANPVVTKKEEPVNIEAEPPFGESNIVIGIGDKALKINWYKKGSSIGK

Assay [2] deals with T2, EDIII-DV4 (E protein domain III of dengue virus serotype DV-4) (dengue virus serotype DV-4, UniProt P09866 572-679).
T2 construct: also called DENV-4
As to the kind of experiment: competition ELISA; column 'EDIII-DV4 [1/7]'.

In assay [3] the target is T3, Singapore/2008 (serotype II EDIII).
T3 construct: also called ED3-DV2/Sing08; DENV-2 Sing
As to the kind of experiment: SPR; row Singapore/2008, serotype II, genotype Cosmopolitan.

Assay [4] deals with T4, Thailand/1997 (serotype IV EDIII).
T4 E protein domain III (EDIII): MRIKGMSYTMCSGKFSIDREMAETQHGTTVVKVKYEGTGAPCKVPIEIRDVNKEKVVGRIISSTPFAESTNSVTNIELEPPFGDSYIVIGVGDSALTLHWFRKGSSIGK
The assay can be described thus: SPR; row Thailand/1997, serotype IV, genotype III. (Surface plasmon resonance follows binding to a sensor surface in real time, without labels.)

Assay [5] addresses T5, Venezuela/2007 (serotype II EDIII).
T5 construct: also called ED3-DV2/Venezuela07
T5 E protein domain III (EDIII): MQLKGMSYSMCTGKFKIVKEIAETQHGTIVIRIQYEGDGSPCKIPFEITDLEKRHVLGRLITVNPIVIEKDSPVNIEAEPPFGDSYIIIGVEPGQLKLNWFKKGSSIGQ
As to the kind of experiment: ELISA; row Venezuela/2007, serotype II, genotype SE-Asian/American. A general note: ELISA stands for enzyme-linked immunosorbent assay.

For assay [6], the target named is T6, EDIII-DV1 (E protein domain III of dengue virus serotype DV-1) (dengue virus serotype DV-1, UniProt P17763 573-680).
T6 construct: also called DENV-1; EDIII of DV-1
T6 chain: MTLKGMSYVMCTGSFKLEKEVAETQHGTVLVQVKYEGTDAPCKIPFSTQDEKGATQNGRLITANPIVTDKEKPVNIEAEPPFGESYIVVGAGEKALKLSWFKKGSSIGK
The assay can be described thus: competition ELISA.

In assay [7] the target is T7, Vietnam/2007 (serotype II EDIII).
T7 construct: Genotype Asian II; also called ED3-DV2/Viet07
T7 E protein domain III (EDIII): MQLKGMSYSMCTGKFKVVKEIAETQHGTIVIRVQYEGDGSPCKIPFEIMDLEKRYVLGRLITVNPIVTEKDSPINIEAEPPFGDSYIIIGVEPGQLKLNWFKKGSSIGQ
As to the kind of experiment: ELISA; row Vietnam/2007, serotype II, genotype Asian II.

Assay [8] concerns the target T2, EDIII-DV4 (E protein domain III of …). As to the kind of experiment: competition ELISA; column 'EDIII-DV4'.
In assay [9] the target is T8, Malaysia/2005 (serotype I EDIII).
T8 construct: also called ED3-DV1/Malaysia05
T8 E protein domain III (EDIII): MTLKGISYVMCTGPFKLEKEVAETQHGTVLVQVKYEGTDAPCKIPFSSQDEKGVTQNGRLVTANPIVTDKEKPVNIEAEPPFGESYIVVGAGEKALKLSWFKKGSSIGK

In assay [10] the target is ED3-DV4/H241/Phil56 (EDIII of DENV-4 strain H241) (dengue virus serotype DENV-4, strain …, UniProt Q58HT7 572-679). The assay can be described thus: Kd table, method not stated; Ag DENV-4 Phil.
Assay [11] deals with T9, New Guinea/1944 (NGC)* (serotype II EDIII) (Dengue virus 2).
T9 construct: isolated EDIII protein; also called EDIII of DENV-2 NGC
T9 sequence (P14340 578-673): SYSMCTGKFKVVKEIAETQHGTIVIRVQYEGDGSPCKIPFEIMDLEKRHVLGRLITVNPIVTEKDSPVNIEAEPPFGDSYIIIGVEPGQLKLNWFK
The assay can be described thus: ELISA; row New Guinea/1944 (NGC)*, serotype II, genotype Asian I.

The Kd is a measure of binding affinity in units of concentration. High values mean a looser complex, low ones a tighter complex.

B1: antibody D88 (antibody, V domains shown)
VH: QVQLVQSGAEVKKPGASVKVSCKAGFNIKDVYMSWVRQAPEQGLEWMGRIDPENGDTKYDPKLQGRVTMTADTSTNTAYMELRSLRSDDTAVYYCARGWEGFAYWGQGTLVTVSS
VL: DIVMTQSPASLAVSLGERATISCRASENVDKYGNSFMHWYQQKPGQPPKLLIYRASELQWGVPDRFSGSGSGTDFTLTISSLQAEDVAVYYCQRSNEVPWTFGQGTKLEIK
notes: also called mAb D88
As for B1, the Kd in [1] was 610 pM; in assay [2] it was 3120 pM; in [3], 24 pM; in [4], over 300000 pM; in assay [5], under 100 pM; in assay [6] it was under 100 pM. Further, the Kd in [7] is under 100 pM; in assay [8] it was 6120 pM; in [9] it was 64 pM; in [10], 148000 pM; in assay [11] it was under 100 pM.
